Article PMC7818446, “Enzymology of the pathway for ATP production by arginine breakdown” (The Febs Journal, 2020)
Each block holds one molecule with its values, some of them ahead of it.

Experiments:
[1] = target: T1, ArcC1 (carbamate kinase, CK) (Lactococcus lactis, UniProt Q9CE16); experiment: ATP formation by ATPlite luminescence; format: biochemical; details: read-out: % inhibition at 10 mM
T1 construct: expressed in L. lactis NZ9000; dimer (73 kDa)
T1 sequence (Q9CE16 1-314): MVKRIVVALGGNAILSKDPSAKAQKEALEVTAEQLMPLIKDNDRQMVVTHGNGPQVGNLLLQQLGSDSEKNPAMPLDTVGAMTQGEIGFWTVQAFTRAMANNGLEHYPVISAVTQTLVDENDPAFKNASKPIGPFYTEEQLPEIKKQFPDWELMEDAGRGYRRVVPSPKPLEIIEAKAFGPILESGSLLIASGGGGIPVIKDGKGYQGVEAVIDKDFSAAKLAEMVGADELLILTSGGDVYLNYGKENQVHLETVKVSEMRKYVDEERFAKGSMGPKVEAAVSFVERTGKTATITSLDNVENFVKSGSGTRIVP

[2] = target: T2, ArcA (arginine deiminase, ADI) (Lactococcus lactis, UniProt P58013); experiment: citrulline formation, COLDER assay (A540); Michaelis-Menten with uncompetitive substrate inhibition; format: biochemical; details: 3.2 nM ArcA, 50 mM KPi pH 7.0, 30 °C, n = 1
T2 construct: expressed in L. lactis NZ9000; tetramer (194 kDa)
T2 sequence (P58013 1-410): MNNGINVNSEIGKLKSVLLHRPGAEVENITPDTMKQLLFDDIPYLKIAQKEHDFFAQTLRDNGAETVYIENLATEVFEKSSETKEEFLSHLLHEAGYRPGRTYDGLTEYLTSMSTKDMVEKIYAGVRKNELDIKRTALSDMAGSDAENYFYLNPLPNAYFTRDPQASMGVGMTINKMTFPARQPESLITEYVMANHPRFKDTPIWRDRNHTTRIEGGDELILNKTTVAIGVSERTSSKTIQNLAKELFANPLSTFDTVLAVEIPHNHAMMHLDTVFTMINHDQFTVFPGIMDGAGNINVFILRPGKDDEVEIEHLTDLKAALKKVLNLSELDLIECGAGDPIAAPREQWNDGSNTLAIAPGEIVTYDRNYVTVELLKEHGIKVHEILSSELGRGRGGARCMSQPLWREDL

[3] = target: T3, ArcB (ornithine transcarbamoylase, OTC) (Lactococcus lactis, UniProt P0C2U0); experiment: citrulline formation, COLDER assay (A540); format: biochemical; details: read-out: % inhibition at 10 mM
T3 construct: expressed in L. lactis NZ9000; hexamer (245 kDa)
T3 sequence (P0C2U0 1-354): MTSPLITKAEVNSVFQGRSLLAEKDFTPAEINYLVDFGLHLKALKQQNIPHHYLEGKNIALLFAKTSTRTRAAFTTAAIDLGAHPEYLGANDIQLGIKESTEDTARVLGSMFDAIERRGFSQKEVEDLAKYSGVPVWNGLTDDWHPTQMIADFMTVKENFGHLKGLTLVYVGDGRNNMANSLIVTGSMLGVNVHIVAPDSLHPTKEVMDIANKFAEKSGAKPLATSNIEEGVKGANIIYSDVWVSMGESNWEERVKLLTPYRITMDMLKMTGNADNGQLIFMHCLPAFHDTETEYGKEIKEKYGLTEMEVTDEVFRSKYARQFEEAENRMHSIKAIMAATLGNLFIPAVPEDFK

[4] = target: T2, ArcA (arginine deiminase, ADI); experiment: citrulline formation, COLDER assay (A540); format: biochemical; details: read-out: % inhibition at 10 mM
[5] = target: T1, ArcC1 (carbamate kinase, CK); experiment: ATP formation by ATPlite luminescence; format: biochemical; details: 5 mM carbamoyl-Pi, 5 mM Mg-ADP; 50 mM KPi pH 7.0; 30 °C
[6] = target: T3, ArcB (ornithine transcarbamoylase, OTC); experiment: citrulline formation, COLDER assay (A540); format: biochemical; details: citrulline-forming direction; 5 mM carbamoyl-Pi; 50 mM KPi pH 7.0; 30 °C
[7] = substrate: NC(=O)OP(=O)(O)O; experiment: citrulline formation, COLDER assay (A540); format: biochemical, Lactococcus lactis; details: citrulline-forming direction, 5 mM ornithine, 50 mM KPi pH 7.0, 30 °C
[8] = substrate: N=C(N)NCCC[C@H](N)C(=O)O; experiment: citrulline formation, COLDER assay (A540); format: biochemical, Lactococcus lactis; details: 50 mM KPi pH 7.0, 30 °C, 42 nM ArcA, arginine up to 480 µM
[9] = substrate: N=C(N)NCCC[C@H](N)C(=O)O; experiment: purified protein; format: biochemical, Lactococcus lactis; details: external arginine, 10 mM internal ornithine, DOPE:DOPG:DOPC 50:38:12, 50 mM KPi pH 7.0, 30 °C, labelled compound
[10] = substrate: NC(=O)NCCC[C@H](N)C(=O)O; experiment: purified protein; format: biochemical, Lactococcus lactis; details: internal citrulline as counter-substrate, 25 µM external arginine, membrane potential −120 mV (valinomycin), pH 7.0, 30 °C
[11] = substrate: NCCC[C@H](N)C(=O)O; experiment: purified protein; details: internal ornithine as counter-substrate, 25 µM external arginine, 50 mM KPi pH 7.0, 30 °C
[12] = substrate: Nc1ncnc2c1ncn2[C@@H]1O[C@H](COP(=O)(O)OP(=O)(O)O)[C@@H](O)[C@H]1O; experiment: ATP/ADP ratio by PercevalHR fluorescence, pH-corrected with pyranine; format: biochemical, Lactococcus lactis; details: 5 mM carbamoyl-Pi, 50 mM KPi pH 7.0, 30 °C
[13] = substrate: NC(=O)OP(=O)(O)O; experiment: as above; format: biochemical, Lactococcus lactis; details: 5 mM Mg-ADP, 50 mM KPi pH 7.0, 30 °C

inhibition at 10000 µM [1]: 40 to 50%
Molecule: NC(=O)NCCC[C@H](N)C(=O)O [L-citrulline]

Molecule: N=C(N)NCCC[C@H](N)C(=O)O [L-arginine]
K I [2]: 3.2 ± 0.4 mM | inhibition at 10000 µM [3]: 25%

inhibition at 10000 µM [4]: 30% | % inhibition [5]: ornithine was slightly inhibitory | Km [6]: 700 ± 200 µM
Molecule: NCCC[C@H](N)C(=O)O [L-ornithine]

B1: ArcB (ornithine transcarbamoylase, OTC) (Lactococcus lactis subsp. lactis Il1403) (protein)
chain: T3 sequence (P0C2U0 1-354)
notes: expressed in L. lactis NZ9000; hexamer (245 kDa)
Km [7]: 2.7 ± 0.4 mM | kcat [7]: 565 ± 45 s⁻¹

B2: ArcA (arginine deiminase, ADI) (Lactococcus lactis subsp. lactis Il1403) (protein)
chain: T2 sequence (P58013 1-410)
notes: expressed in L. lactis NZ9000; tetramer (194 kDa)
Km [8]: 34.5 ± 6.6 µM | kcat [8]: 3.3 ± 0.2 s⁻¹

B3: ArcD2 (arginine/ornithine antiporter, AOA) (Lactococcus lactis subsp. lactis Il1403) (protein)
chain: MENKKTKGISLFALLAIIISGAIGGGVFNLANDLANGSTPGGVMISWLFIGFGIFMLVLSFNRLITIRPKLSGVSDYAREGFGDFIGFLSGWGYWISAWTGTIGFAVLMMTSADYFFPSKFANSNGSLTVLSVIIVSIISWILMFLVDRGVETAALVNAVVMIAKLIPLVVFSITGIILFKADVFTQHFWQTFTSNLAADGSVKSLVWHAMTAGGLLDQIKGSLMVMVWVFVGIEGAAMMGNRAKKKSDTAKATIIGLAVLLVIYVLLSLLPYGYMDQASLANVKAPGLVYILNEMVGGWGGSLMAIGLMISLLGAWLSWTMLPVEATQQLAEKKLLPSWFGKLNKYHAPSNSLLITQLMIQIFIIITYFVANAYNVFIYMATAVIMICYALVGAYLLKIGIKEGSIKNILIGFFTFAFQALALYLSGWQYVWLAMILYTIGFILFIKAKKESRQAISVKEWAGMFIVALLGVLAILVLICGAKSGTALDLRGLLGY
notes: expressed in L. lactis JP9000; reconstituted in proteoliposomes; monomer (53 kDa) in DDM
Km [9]: 6.0 ± 0.7 µM | kcat [9]: 0.11 ± 0.005 s⁻¹ | Km [10]: 6.0 ± 2.1 mM | Km [11]: 2.5 ± 0.7 mM | kcat [11]: 0.09 ± 0.009 s⁻¹

B4: ArcC1 (carbamate kinase, CK) (Lactococcus lactis subsp. lactis Il1403) (protein)
chain: T1 sequence (Q9CE16 1-314)
notes: expressed in L. lactis NZ9000; dimer (73 kDa)
Km [12]: 1.6 ± 0.7 mM | kcat [12]: 190 ± 15 s⁻¹ | Km [13]: 0.6 ± 0.2 mM | kcat [13]: 200 ± 20 s⁻¹
